Series [1] addresses T1, CouR (Rhodococcus jostii, UniProt Q0S6D0, R36A).
T1 construct: gene RHA1_ro05125; full-length
The series is described as follows: ITC. Type of series: binding.

For series [2], the target named is T2, CouR (Rhodococcus jostii, UniProt Q0S6D0, R38A).
T2 construct: gene RHA1_ro05125; full-length
The series can be described thus: ITC. Type of series: binding.

The target of series [3] is T3, CouR (Rhodococcus jostii, UniProt Q0S6D0).
T3 construct: gene RHA1_ro05125; full-length, homodimer; crystal model residues 4–146
T3 sequence (Q0S6D0 1-146): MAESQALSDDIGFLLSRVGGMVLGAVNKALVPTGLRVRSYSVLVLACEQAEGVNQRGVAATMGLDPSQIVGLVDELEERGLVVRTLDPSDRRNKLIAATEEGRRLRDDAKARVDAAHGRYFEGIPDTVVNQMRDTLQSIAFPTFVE
The series is described as follows: ([…] Å) and ITC; EMSA in support. Type of series: binding.

For series [4], the target named is T4, CouR (Rhodococcus jostii, UniProt Q0S6D0, R36A/R38A).
T4 construct: gene RHA1_ro05125; full-length
The series can be described thus: ITC. It is filed as binding.

For series [5], the target named is T5, CouR (Rhodococcus jostii RHA1, UniProt Q0S6D0 1-146).
T5 sequence: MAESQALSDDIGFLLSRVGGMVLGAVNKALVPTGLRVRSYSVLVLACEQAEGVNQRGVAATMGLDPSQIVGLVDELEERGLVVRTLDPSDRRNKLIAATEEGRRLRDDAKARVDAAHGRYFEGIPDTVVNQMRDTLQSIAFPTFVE
The series can be described thus: competition; 1 uM unlabelled vs 1 nM DIG-couRp_couNp, 200 nM CouR; EMSA: 20 mM HEPES pH 7.6, 10 mM (NH4)2SO4, 30 mM KCl, 1 mM DTT, 1 mM EDTA, 0.2% Tween 20, 100 ug/ml poly[d(I-C)], 1 nM probe, 25 C, 20 min. The settings on record: protein: recombinant; tags: His-tag removed by Factor Xa; extra N-terminal His residue remains; chain copies: 2; blunt. A general note: Mobility shift assays separate free from complexed probe on a gel.

Series [6] deals with T5, CouR. The series is described as follows: EMSA; 25-200 nM CouR; EMSA: 20 mM HEPES pH 7.6, 10 mM (NH4)2SO4, 30 mM KCl, 1 mM DTT, 1 mM EDTA, 0.2% Tween 20, 100 ug/ml poly[d(I-C)], 1 nM probe, 25 C, 20 min. To be noted: protein: recombinant; tags: His-tag removed by Factor Xa; extra N-terminal His residue remains; chain copies: 2; label: 3' DIG-11-ddUTP (probe); blunt.
For series [7], the target named is T6, CouR R38A (Rhodococcus jostii RHA1, UniProt Q0S6D0 1-146, R38A).
T6 sequence: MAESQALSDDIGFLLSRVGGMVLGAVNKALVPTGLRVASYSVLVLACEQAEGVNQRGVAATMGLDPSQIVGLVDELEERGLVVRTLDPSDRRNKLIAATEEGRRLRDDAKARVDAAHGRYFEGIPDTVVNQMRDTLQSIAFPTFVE
The series is described as follows: EMSA; 50 or 200 nM protein; EMSA: 20 mM HEPES pH 7.6, 10 mM (NH4)2SO4, 30 mM KCl, 1 mM DTT, 1 mM EDTA, 0.2% Tween 20, 100 ug/ml poly[d(I-C)], 1 nM probe, 25 C, 20 min. The settings on record: protein: recombinant; tags: His-tag removed by Factor Xa; extra N-terminal His residue remains; chain copies: 2; label: 3' DIG-11-ddUTP (probe); blunt.

The target of series [8] is T7, CouR R36A (Rhodococcus jostii RHA1, UniProt Q0S6D0 1-146, R36A).
T7 sequence: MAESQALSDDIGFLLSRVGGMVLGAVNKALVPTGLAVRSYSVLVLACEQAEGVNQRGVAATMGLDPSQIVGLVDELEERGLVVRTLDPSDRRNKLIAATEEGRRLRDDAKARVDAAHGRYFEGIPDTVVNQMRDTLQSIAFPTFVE
The description is as above. The settings on record: protein: recombinant; tags: His-tag removed by Factor Xa; extra N-terminal His residue remains; chain copies: 2; label: 3' DIG-11-ddUTP (probe); blunt.

Series [9] deals with T8, CouR R36A/R38A (Rhodococcus jostii RHA1, UniProt Q0S6D0 1-146, R36A;R38A).
T8 sequence: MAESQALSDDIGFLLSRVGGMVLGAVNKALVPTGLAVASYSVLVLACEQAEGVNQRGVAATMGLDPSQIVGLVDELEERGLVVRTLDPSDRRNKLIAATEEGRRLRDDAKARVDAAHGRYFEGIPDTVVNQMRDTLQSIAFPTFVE
The description is as above. To be noted: protein: recombinant; tags: His-tag removed by Factor Xa; extra N-terminal His residue remains; chain copies: 2; label: 3' DIG-11-ddUTP (probe); blunt.

The Kd is the constant that tells how readily two partners part at equilibrium. A high value points to a looser complex. Regarding `CC(C)(COP(=O)(O)OP(=O)(O)OC[C@H]1O[C@@H](n2cnc3c(N)ncnc32)[C@H](O)[C@@H]1OP(=O)(O)O)[C@@H](O)C(=O)NCCC(=O)NCCSC(=O)/C=C/c1ccc(O)cc1` [p-coumaroyl–CoA], the Kd in series [1] was determined as 28 µM; in series [2], 25 µM; in series [3] it was 11 µM; in series [4] it was 89 µM.

B1: couTp (dsDNA)
DNA 1: CATTAATCATTGAACTTGTCAATGGAAGAGA
DNA 2: TCTCTTCCATTGACAAGTTCAATGATTAATG
On to B1, for which the binding result in series [5] is reported as “binds”.

B2: couHp (dsDNA)
DNA 1: TATCAATCATTGATAATGTCAATGATTGACT
DNA 2: AGTCAATCATTGACATTATCAATGATTGATA
As for B2, the binding result in [5] was “binds”.

B3: couRp_couNp_m (dsDNA)
DNA 1: CATTGATGTAACTGAATGAGTTAGATTAAGG
DNA 2: CCTTAATCTAACTCATTCAGTTACATCAATG
Turning to B3, in series [6], the binding result is on record as “no binding”.

B4: couRp_couNp (dsDNA)
DNA 1: CATTGATGATTGAGAATGTCAATGATTAAGG
DNA 2: CCTTAATCATTGACATTCTCAATCATCAATG
As for B4, the binding result in series [7] was “no binding”; in [8] it was “no binding”; in [9], “no binding”; in [6] it was “binds”.

The values are drawn from paper PMC4737184, “The activity of CouR, a MarR family transcriptional regulator, is modulated through a novel molecular mechanism” (Nucleic Acids Research, 2015).
